Values of other authors, collected in PMC3433420.
Where two headings read alike, the source gives them in different places.

Legend:
Conditions in all cases: cited from earlier work
SYK-NC (Homo sapiens) [1] = molecular target: SYK-NC (Homo sapiens) (UniProt P43405)
ABL2 (Homo sapiens) [2] = molecular target: ABL2 (Homo sapiens) (UniProt P42684)
PIK3R3-NC (Homo sapiens) [3] = molecular target: PIK3R3-NC (Homo sapiens) (UniProt Q92569)
RASA1-N (Homo sapiens) [4] = molecular target: RASA1-N (Homo sapiens) (UniProt P20936)
NCK2 (Homo sapiens) [5] = molecular target: NCK2 (Homo sapiens) (UniProt O43639)
BCAR3 (Homo sapiens) [6] = molecular target: BCAR3 (Homo sapiens) (UniProt O75815)
SHC1-PTB (Homo sapiens) = SHC1-PTB (Homo sapiens) (UniProt P29353)
CRKL (Homo sapiens) [7] = molecular target: CRKL (Homo sapiens) (UniProt P46109)
SYK-NC (Homo sapiens) [8] = molecular target: SYK-NC (Homo sapiens) (UniProt P43405); remark: listed apart in the source
GRB7 (Homo sapiens) = GRB7 (Homo sapiens) (UniProt Q14451)
PIK3R1-N (Homo sapiens) = PIK3R1-N (Homo sapiens) (UniProt P27986)
SLA (Homo sapiens) = SLA (Homo sapiens) (UniProt Q13239)
SH2B2 (Homo sapiens) = SH2B2 (Homo sapiens) (UniProt O14492)
ABL2 (Homo sapiens) [9] = molecular target: ABL2 (Homo sapiens) (UniProt P42684); remark: listed apart in the source
CRK (Homo sapiens) = CRK (Homo sapiens) (UniProt P46108)
PLCG1-NC (Homo sapiens) = PLCG1-NC (Homo sapiens) (UniProt P19174)
PIK3R3-NC (Homo sapiens) [10] = molecular target: PIK3R3-NC (Homo sapiens) (UniProt Q92569); remark: listed apart in the source
VAV3 (Homo sapiens) = VAV3 (Homo sapiens) (UniProt Q9UKW4)
RASA1-N (Homo sapiens) [11] = molecular target: RASA1-N (Homo sapiens) (UniProt P20936); remark: listed apart in the source
TENC1 (Homo sapiens) = TENC1 (Homo sapiens) (UniProt Q63HR2)
VAV1 (Homo sapiens) = VAV1 (Homo sapiens) (UniProt P15498)
NCK1 (Homo sapiens) = NCK1 (Homo sapiens) (UniProt P16333)
SLA2 (Homo sapiens) = SLA2 (Homo sapiens) (UniProt Q9H6Q3)
PIK3R1-NC (Homo sapiens) = PIK3R1-NC (Homo sapiens) (UniProt P27986)
ABL1 (Homo sapiens) = ABL1 (Homo sapiens) (UniProt P00519)
SHC3 (Homo sapiens) = SHC3 (Homo sapiens) (UniProt Q92529)
PIK3R2-C (Homo sapiens) = PIK3R2-C (Homo sapiens) (UniProt O00459)
NCK2 (Homo sapiens) [12] = molecular target: NCK2 (Homo sapiens) (UniProt O43639); remark: listed apart in the source
PIK3R3-N (Homo sapiens) = PIK3R3-N (Homo sapiens) (UniProt Q92569)
ZAP70-C (Homo sapiens) = ZAP70-C (Homo sapiens) (UniProt P43403)
TNS3 (Homo sapiens) = TNS3 (Homo sapiens) (UniProt Q68CZ2)
SHC1 (Homo sapiens) = SHC1 (Homo sapiens) (UniProt P29353)
SRC (Homo sapiens) = SRC (Homo sapiens) (UniProt P12931)
PIK3R2-NC (Homo sapiens) = PIK3R2-NC (Homo sapiens) (UniProt O00459)
BCAR3 (Homo sapiens) [13] = molecular target: BCAR3 (Homo sapiens) (UniProt O75815); remark: listed apart in the source
VAV2 (Homo sapiens) = VAV2 (Homo sapiens) (UniProt P52735)
CRKL (Homo sapiens) [14] = molecular target: CRKL (Homo sapiens) (UniProt P46109); remark: listed apart in the source
TXK (Homo sapiens) = TXK (Homo sapiens) (UniProt P42681)
HCK (Homo sapiens) = HCK (Homo sapiens) (UniProt P08631)
PIK3R2-N (Homo sapiens) = PIK3R2-N (Homo sapiens) (UniProt O00459)
PIK3R3-C (Homo sapiens) = PIK3R3-C (Homo sapiens) (UniProt Q92569)
PTK6 (Homo sapiens) = PTK6 (Homo sapiens) (UniProt Q13882)
PLCG1-C (Homo sapiens) = PLCG1-C (Homo sapiens) (UniProt P19174)
BLK (Homo sapiens) = BLK (Homo sapiens) (UniProt P51451)
PLCG2-NC (Homo sapiens) = PLCG2-NC (Homo sapiens) (UniProt P16885)
PLCG2-NC (Homo sapiens), sequence (P16885 527-740): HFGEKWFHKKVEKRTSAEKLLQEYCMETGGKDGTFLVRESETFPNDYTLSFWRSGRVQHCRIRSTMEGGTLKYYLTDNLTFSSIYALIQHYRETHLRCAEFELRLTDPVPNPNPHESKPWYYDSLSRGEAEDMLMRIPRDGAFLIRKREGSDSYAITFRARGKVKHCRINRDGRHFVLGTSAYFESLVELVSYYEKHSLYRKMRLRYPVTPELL

ABL2 (Homo sapiens), sequence (P42684 168-268): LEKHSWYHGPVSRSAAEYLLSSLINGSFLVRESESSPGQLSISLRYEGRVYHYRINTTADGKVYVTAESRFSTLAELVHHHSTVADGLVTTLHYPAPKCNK
NCK2 (Homo sapiens), sequence (O43639 280-380): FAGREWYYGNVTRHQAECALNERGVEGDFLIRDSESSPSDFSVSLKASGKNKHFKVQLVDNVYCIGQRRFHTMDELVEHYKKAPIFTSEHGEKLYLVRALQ
CRKL (Homo sapiens), sequence (P46109 9-107): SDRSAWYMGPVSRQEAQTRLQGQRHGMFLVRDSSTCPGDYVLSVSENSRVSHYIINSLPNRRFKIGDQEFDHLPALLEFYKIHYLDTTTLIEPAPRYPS
BCAR3 (Homo sapiens), sequence (O75815 149-258): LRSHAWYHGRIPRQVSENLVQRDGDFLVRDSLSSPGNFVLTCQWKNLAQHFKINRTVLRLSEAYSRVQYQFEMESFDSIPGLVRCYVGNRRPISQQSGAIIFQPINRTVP
RASA1-N (Homo sapiens), sequence (P20936 176-446): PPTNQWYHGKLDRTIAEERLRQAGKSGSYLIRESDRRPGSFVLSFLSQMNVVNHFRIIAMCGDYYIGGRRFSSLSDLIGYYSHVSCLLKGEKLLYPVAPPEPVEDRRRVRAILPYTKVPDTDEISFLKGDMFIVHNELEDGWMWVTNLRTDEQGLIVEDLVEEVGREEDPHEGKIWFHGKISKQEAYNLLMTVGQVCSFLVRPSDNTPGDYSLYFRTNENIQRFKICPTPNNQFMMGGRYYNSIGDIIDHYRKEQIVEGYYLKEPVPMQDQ
PTK6 (Homo sapiens), sequence (Q13882 73-175): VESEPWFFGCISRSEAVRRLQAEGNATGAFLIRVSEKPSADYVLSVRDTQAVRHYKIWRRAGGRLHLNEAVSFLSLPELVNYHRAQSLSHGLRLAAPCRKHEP
CRK (Homo sapiens), sequence (P46108 8-123): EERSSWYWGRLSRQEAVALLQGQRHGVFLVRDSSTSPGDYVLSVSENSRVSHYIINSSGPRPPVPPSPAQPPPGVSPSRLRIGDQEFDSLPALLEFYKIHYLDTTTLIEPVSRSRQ
SH2B2 (Homo sapiens), sequence (O14492 412-520): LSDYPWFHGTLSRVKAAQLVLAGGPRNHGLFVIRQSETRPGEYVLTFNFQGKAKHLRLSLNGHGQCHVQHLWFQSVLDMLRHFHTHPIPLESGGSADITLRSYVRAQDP
VAV1 (Homo sapiens), sequence (P15498 666-770): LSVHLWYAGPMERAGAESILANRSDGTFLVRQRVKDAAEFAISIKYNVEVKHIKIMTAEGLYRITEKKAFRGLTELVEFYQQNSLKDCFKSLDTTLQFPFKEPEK
VAV2 (Homo sapiens), sequence (P52735 668-772): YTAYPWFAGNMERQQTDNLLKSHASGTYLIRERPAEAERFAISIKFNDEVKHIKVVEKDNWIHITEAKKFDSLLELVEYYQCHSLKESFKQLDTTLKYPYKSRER
HCK (Homo sapiens), sequence (P08631 139-246): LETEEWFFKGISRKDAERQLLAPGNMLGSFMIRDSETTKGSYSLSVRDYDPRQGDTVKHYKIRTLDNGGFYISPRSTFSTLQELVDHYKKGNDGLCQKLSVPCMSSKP
TXK (Homo sapiens), sequence (P42681 145-251): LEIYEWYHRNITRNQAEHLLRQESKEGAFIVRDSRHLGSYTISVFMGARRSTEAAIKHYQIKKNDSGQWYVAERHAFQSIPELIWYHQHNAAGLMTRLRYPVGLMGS
GRB7 (Homo sapiens), sequence (Q14451 426-532): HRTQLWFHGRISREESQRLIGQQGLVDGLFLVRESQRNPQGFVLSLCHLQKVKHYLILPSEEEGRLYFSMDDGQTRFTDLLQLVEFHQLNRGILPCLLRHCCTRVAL
SHC1-PTB (Homo sapiens), sequence (P29353 483-583): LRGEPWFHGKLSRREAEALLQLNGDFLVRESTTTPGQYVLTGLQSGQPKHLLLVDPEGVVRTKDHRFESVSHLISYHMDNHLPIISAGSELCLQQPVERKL
SHC1 (Homo sapiens), sequence (P29353 483-583): as above
BLK (Homo sapiens), sequence (P51451 119-225): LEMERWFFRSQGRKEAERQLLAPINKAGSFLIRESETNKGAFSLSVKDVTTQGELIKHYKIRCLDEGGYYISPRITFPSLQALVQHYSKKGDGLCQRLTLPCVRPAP
PIK3R2-N (Homo sapiens), sequence (O00459 325-721): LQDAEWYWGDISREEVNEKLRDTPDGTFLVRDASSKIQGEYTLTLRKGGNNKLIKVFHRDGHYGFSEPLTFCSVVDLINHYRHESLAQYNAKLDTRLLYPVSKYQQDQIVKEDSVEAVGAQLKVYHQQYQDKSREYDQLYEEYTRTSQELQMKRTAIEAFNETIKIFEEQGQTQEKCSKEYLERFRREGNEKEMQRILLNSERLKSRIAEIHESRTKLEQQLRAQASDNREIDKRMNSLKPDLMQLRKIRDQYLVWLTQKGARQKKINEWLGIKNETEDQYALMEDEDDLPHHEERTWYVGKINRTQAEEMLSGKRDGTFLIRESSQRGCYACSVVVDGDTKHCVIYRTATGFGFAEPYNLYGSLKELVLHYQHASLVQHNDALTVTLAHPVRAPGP
PIK3R2-C (Homo sapiens), sequence (O00459 325-721): as above
PIK3R2-NC (Homo sapiens), sequence (O00459 325-721): as above
ABL1 (Homo sapiens), sequence (P00519 122-222): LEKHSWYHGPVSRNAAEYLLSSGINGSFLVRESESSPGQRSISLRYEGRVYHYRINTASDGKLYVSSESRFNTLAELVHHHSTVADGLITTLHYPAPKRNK

Q: With …pYSEAKTPI as the substance, how does the apparent Kd (screen) (SYK-NC (Homo sapiens) [1]) read?
A: 923 nM

Q: And the apparent Kd (screen) (ABL2 (Homo sapiens) [2])?
A: 71 nM

Q: And the apparent Kd (screen) (PIK3R3-NC (Homo sapiens) [3])?
A: 2000 nM

Q: What about the apparent Kd (screen) (RASA1-N (Homo sapiens) [4]) of the same substance?
A: 953 nM

Q: What about the apparent Kd (screen) (NCK2 (Homo sapiens) [5]) of the same substance?
A: 2000 nM

Q: And the apparent Kd (screen) (BCAR3 (Homo sapiens) [6])?
A: 1780 nM

Q: What about the apparent Kd (screen) (SHC1-PTB (Homo sapiens)) of the same substance?
A: 2000 nM

Q: What about the apparent Kd (screen) (CRKL (Homo sapiens) [7]) of the same substance?
A: 1760 nM

Q: Which apparent Kd (screen) (SYK-NC (Homo sapiens) [8]) does the source give for …pYAAMGACP here?
A: 596 nM

Q: And the apparent Kd (screen) (GRB7 (Homo sapiens))?
A: 979 nM

Q: And the apparent Kd (screen) (PIK3R1-N (Homo sapiens))?
A: 528 nM

Q: What about the apparent Kd (screen) (SLA (Homo sapiens)) of the same substance?
A: 2000 nM

Q: What about the apparent Kd (screen) (SH2B2 (Homo sapiens)) of the same substance?
A: 2000 nM

Q: And the apparent Kd (screen) (ABL2 (Homo sapiens) [9])?
A: 147 nM

Q: And the apparent Kd (screen) (CRK (Homo sapiens))?
A: 264 nM

Q: What about the apparent Kd (screen) (PLCG1-NC (Homo sapiens)) of the same substance?
A: 720 nM

Q: And the apparent Kd (screen) (PIK3R3-NC (Homo sapiens) [10])?
A: 14 nM

Q: What about the apparent Kd (screen) (VAV3 (Homo sapiens)) of the same substance?
A: 1540 nM

Q: And the apparent Kd (screen) (RASA1-N (Homo sapiens) [11])?
A: 906 nM

Q: What about the apparent Kd (screen) (TENC1 (Homo sapiens)) of the same substance?
A: 2000 nM

Q: And the apparent Kd (screen) (VAV1 (Homo sapiens))?
A: 2000 nM

Q: And the apparent Kd (screen) (NCK1 (Homo sapiens))?
A: 208 nM

Q: What about the apparent Kd (screen) (SLA2 (Homo sapiens)) of the same substance?
A: 2000 nM

Q: What about the apparent Kd (screen) (PIK3R1-NC (Homo sapiens)) of the same substance?
A: 55 nM

Q: And the apparent Kd (screen) (ABL1 (Homo sapiens))?
A: 2000 nM

Q: And the apparent Kd (screen) (SHC3 (Homo sapiens))?
A: 636 nM

Q: What about the apparent Kd (screen) (PIK3R2-C (Homo sapiens)) of the same substance?
A: 926 nM

Q: And the apparent Kd (screen) (NCK2 (Homo sapiens) [12])?
A: 550 nM

Q: What about the apparent Kd (screen) (PIK3R3-N (Homo sapiens)) of the same substance?
A: 499 nM

Q: And the apparent Kd (screen) (ZAP70-C (Homo sapiens))?
A: 1440 nM

Q: What about the apparent Kd (screen) (TNS3 (Homo sapiens)) of the same substance?
A: 1500 nM

Q: What about the apparent Kd (screen) (SHC1 (Homo sapiens)) of the same substance?
A: 595 nM

Q: And the apparent Kd (screen) (SRC (Homo sapiens))?
A: 1500 nM

Q: And the apparent Kd (screen) (PIK3R2-NC (Homo sapiens))?
A: 78 nM

Q: What about the apparent Kd (screen) (BCAR3 (Homo sapiens) [13]) of the same substance?
A: 2000 nM

Q: What about the apparent Kd (screen) (VAV2 (Homo sapiens)) of the same substance?
A: 300 nM

Q: What about the apparent Kd (screen) (CRKL (Homo sapiens) [14]) of the same substance?
A: 435 nM

Q: What about the apparent Kd (screen) (TXK (Homo sapiens)) of the same substance?
A: 1670 nM

Q: What about the apparent Kd (screen) (HCK (Homo sapiens)) of the same substance?
A: 581 nM

Q: What about the apparent Kd (screen) (PIK3R2-N (Homo sapiens)) of the same substance?
A: 120 nM

Q: And the apparent Kd (screen) (PIK3R3-C (Homo sapiens))?
A: 499 nM

Q: And the apparent Kd (screen) (PTK6 (Homo sapiens))?
A: 440 nM

Q: What about the apparent Kd (screen) (PLCG1-C (Homo sapiens)) of the same substance?
A: 689 nM

Q: Which results are given for …pYSEDPTVPd?
A: apparent Kd (screen) (BLK (Homo sapiens)): 763 nM; apparent Kd (screen) (PLCG2-NC (Homo sapiens)): 1060 nM
